Earlier results in patent publication US9782454B2 (LONGEVITY BIOTECH, INC., priority 2010, dated 2017).
No end group written: not given here.

Experiments:
CRF2β = biological target: T1, CRF2β (Homo sapiens, UniProt Q13324); settings: cited from earlier work
T1 sequence (Q13324 1-438 isoform Q13324-2): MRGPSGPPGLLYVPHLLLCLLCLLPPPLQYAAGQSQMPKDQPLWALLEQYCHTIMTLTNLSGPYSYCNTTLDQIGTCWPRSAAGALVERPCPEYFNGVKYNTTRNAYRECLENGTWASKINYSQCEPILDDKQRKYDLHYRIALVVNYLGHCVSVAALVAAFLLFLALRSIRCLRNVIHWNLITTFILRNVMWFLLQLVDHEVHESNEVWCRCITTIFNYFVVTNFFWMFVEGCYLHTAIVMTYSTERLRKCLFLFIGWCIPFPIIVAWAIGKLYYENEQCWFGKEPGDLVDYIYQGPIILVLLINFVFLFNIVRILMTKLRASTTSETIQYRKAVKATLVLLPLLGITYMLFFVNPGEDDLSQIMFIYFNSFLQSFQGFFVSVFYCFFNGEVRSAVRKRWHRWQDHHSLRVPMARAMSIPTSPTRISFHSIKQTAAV

CRF2α = biological target: T2, CRF2α (Homo sapiens, UniProt Q13324); settings: cited from earlier work
T2 sequence (Q13324 1-411): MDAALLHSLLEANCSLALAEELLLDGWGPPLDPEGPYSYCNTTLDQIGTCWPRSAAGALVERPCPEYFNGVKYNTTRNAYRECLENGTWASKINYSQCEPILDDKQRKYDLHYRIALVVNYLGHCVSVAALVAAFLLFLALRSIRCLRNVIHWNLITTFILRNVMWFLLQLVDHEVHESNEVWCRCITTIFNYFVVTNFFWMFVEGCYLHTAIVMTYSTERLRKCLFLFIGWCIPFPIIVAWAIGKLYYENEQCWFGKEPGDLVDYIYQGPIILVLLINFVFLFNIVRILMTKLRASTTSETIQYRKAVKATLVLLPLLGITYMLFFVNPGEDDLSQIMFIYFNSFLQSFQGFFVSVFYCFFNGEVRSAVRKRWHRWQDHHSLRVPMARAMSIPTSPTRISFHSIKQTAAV

[1] = biological target: T3, human calcitonin receptor (Homo sapiens, UniProt P30988); settings: read-out: EC50, agonist for the human calcitonin receptor; cited from earlier work
T3 sequence (P30988 25-474): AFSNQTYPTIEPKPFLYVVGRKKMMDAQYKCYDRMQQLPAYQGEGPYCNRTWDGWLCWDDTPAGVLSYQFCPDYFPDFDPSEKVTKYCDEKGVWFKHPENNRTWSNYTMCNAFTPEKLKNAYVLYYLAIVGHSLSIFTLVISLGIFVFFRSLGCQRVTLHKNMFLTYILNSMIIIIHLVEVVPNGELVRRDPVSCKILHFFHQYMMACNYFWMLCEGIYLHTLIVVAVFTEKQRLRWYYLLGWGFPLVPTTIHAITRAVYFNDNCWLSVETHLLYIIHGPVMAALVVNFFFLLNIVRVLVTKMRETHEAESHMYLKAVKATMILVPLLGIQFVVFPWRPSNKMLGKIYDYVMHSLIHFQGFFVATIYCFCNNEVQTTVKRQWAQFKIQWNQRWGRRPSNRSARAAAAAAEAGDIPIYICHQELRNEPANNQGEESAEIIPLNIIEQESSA

Glucagon receptor = biological target: T4, Glucagon receptor (Rattus norvegicus, UniProt P30082); settings: cited from earlier work
T4 construct: Enhances glucose-stimulated; from tissue; host or cells: rat liver membranes (value quoted from the literature)
T4 sequence (P30082 27-485): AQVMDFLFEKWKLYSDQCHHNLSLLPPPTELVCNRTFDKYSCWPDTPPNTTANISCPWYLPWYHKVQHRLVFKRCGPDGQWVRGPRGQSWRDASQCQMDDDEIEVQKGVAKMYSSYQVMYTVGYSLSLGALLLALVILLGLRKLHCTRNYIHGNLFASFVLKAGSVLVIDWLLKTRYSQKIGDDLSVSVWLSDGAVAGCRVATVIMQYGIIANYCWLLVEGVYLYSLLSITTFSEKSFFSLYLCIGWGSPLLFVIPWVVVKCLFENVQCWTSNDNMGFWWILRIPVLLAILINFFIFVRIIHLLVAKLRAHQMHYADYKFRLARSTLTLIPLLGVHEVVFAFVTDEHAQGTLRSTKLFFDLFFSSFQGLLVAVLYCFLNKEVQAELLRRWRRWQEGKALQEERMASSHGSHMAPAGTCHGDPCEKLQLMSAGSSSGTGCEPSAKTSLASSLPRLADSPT

In the case of Astressin, the Ki (CRF2β) is given as 1 nM and the Ki (CRF2α) is given as 1.5 nM.

For “PHM 27 (human) (HADGVFTSDFSKLLGQLSAKKYLESLM-NH2; UniProt P01282 81-107, looked up)”, the EC50 [1] is listed as 11 nM.

In the case of des-His1-{Glu9}-Glucagon (1-29) amide, the “agonist activity at the glucagon receptor” value (Glucagon receptor) is given as “activation in rat liver membranes); displays no agonist activity. Enhances glucose-stimulated” and the “pA2 for inhibition of glucagon-induced adenylyl cyclase activation in rat liver membranes” value (Glucagon receptor) is given as “(Glucagon receptor antagonist (pA2 = 7.2 for inhibition of glucagon-induced adenylyl cyclase”.
